The chains are these.
B1: Tyrosine-protein kinase JAK2 (Mus musculus), Q62120 (parent)
chain: MGMACLTMTEMEATSTSPVHQNGDIPGSANSVKQIEPVLQVYLYHSLGQAEGEYLKFPSGEYVAEEICVAASKACGITPVYHNMFALMSETERIWYPPNHVFHIDESTRHDILYRIRFYFPHWYCSGSSRTYRYGVSRGAEAPLLDDFVMSYLFAQWRHDFVHGWIKVPVTHETQEECLGMAVLDMMRIAKEKDQTPLAVYNSVSYKTFLPKCVRAKIQDYHILTRKRIRYRFRRFIQQFSQCKATARNLKLKYLINLETLQSAFYTEQFEVKESARGPSGEEIFATIIITGNGGIQWSRGKHKESETLTEQDVQLYCDFPDIIDVSIKQANQECSNESRIVTVHKQDGKVLEIELSSLKEALSFVSLIDGYYRLTADAHHYLCKEVAPPAVLENIHSNCHGPISMDFAISKLKKAGNQTGLYVLRCSPKDFNKYFLTFAVERENVIEYKHCLITKNENGEYNLSGTKRNFSNLKDLLNCYQMETVRSDSIIFQFTKCCPPKPKDKSNLLVFRTNGISDVQISPTLQRHNNVNQMVFHKIRNEDLIFNESLGQGTFTKIFKGVRREVGDYGQLHKTEVLLKVLDKAHRNYSESFFEAASMMSQLSHKHLVLNYGVCVCGEENILVQEFVKFGSLDTYLKKNKNSINILWKLGVAKQLAWAMHFLEEKSLIHGNVCAKNILLIREEDRRTGNPPFIKLSDPGISITVLPKDILQERIPWVPPECIENPKNLNLATDKWSFGTTLWEICSGGDKPLSALDSQRKLQFYEDKHQLPAPKWTELANLINNCMDYEPDFRPAFRAVIRDLNSLFTPDYELLTENDMLPNMRIGALGFSGAFEDRDPTQFEERHLKFLQQLGKGNFGSVEMCRYDPLQDNTGEVVAVKKLQHSTEEHLRDFEREIEILKSLQHDNIVKYKGVCYSAGRRNLRLIMEYLPYGSLRDYLQKHKERIDHKKLLQYTSQICKGMEYLGTKRYIHRDLATRNILVENENRVKIGDFGLTKVLPQDKEYYKVKEPGESPIFWYAPESLTESKFSVASDVWSFGVVLYELFTYIEKSKSPPVEFMRMIGNDKQGQMIVFHLIELLKSNGRLPRPEGCPDEIYVIMTECWNNNVSQRPSFRDLSLRVDQIRDSIAA

Variants of B1 are the subject of the assay. To be noted: with cdn1b_human CDKN1B.
For V617F, the “effect of a mutation on the interaction” value is recorded as “increasing interaction strength”.
